Source: PMC8896507

Experiments:
[1] = biological target: DNA-PK assembly (KU-DNA-DNA-PKcs) (human (endogenous in HeLa)) (UniProt P78527); assay: SEC-MALS + other: SAXS
[2] = biological target: KU (KU70/KU80 heterodimer) (human (endogenous in HeLa)) (UniProt P12956); assay: SEC-MALS + other: SAXS

“DNA-PK assembly (KU-DNA-DNA-PKcs) (from UniProt P78527 1-4128; P12956 1-609; P13010 1-732) (complex)” was tested, and the weight of the dimer in the two-state SAXS fit [1] was 24%.

For “KU (KU70/KU80 heterodimer) (from UniProt P12956 1-609; P13010 1-732) (complex)”, the stoichiometry N [2] was 2.
